In data set [1] the test system is HeLa Kyoto. Put plainly: thermal stability score vs G1/S (z-score of summed log2 fold changes over temperatures); higher = more thermally stable than in G1/S.
The test system of data set [2] is HeLa Kyoto. Put plainly: solubility in G1/S (NP-40 vs SDS abundance) (log2 ratio); higher = more soluble. The settings on record: cell cycle stage: G1/S.
The subject of data set [3] is HeLa Kyoto. Put plainly: melting temperature (median over replicates), in situ; higher = more thermally stable.
The test system of data set [4] is HeLa Kyoto. As to the kind of experiment: solubility change mitosis vs G1/S (difference of NP-40 vs SDS log2 ratios) (log2 ratio difference); higher = more soluble in mitosis.
Setting [5] is: cell cycle stage: early G1 (4.5 h after nocodazole release).
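For melting temperature (median over replicates), in situ in this document: HeLa Kyoto cells synchronized by double thymidine or nocodazole block, proteins quantified by TMT10plex mass spectrometry, three independent biological replicates.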
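For solubility change mitosis vs G1/S (difference of NP-40 vs SDS log2 ratios) in this document: synchronized HeLa Kyoto cells (double thymidine block for G1/S, nocodazole release for mitosis), protein amounts in NP-40 versus SDS lysates quantified by mass spectrometry, three biological replicates.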
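For solubility in G1/S (NP-40 vs SDS abundance) in this document: HeLa Kyoto cells arrested at G1/S by double thymidine block, proteins quantified by TMT10plex mass spectrometry in mild NP-40 versus SDS extracts, three biological replicates.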
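For thermal stability score vs G1/S (z-score of summed log2 fold changes over temperatures) in this document: synchronized HeLa Kyoto cells, proteins quantified by TMT10plex mass spectrometry, three biological replicates, mitosis taken 0.5 h after nocodazole release, G1/S directly after double thymidine block.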

Take “MTSKKLVNSVAGCADDALAGLVACNPNLQLLQGHRVALRSDLDSLKGRVALLSGGGSGHEPAHAGFIGKGMLTGVIAGAVFTSPAVGSILAAIRAVAQAGTVGTLLIVKNYTGDRLNFGLAREQARAEGIPVEMVVIGDDSAFTVLKKAGRRGLCGTVLIHKVAGALAEAGVGLEEIAKQVNVVAKAMGTLGVSLSSCSVPGSKPTFELSADEVELGLGIHGEAGVRRIKMATADEIVKLMLDHMTNTTNASHVPVQPGSSVVMMVNNLGGLSFLELGIIADATVRSLEGRGVKIARALVGTFMSALEMPGISLTLLLVDEPLLKLIDAETTAAAWPNVAAVSITGRKRSRVAPAEPQEAPDSTAAGGSASKRMALVLERVCSTLLGLEEHLNALDRAAGDGDCGTTHSRAARAIQEWLKEGPPPASPAQLLSKLSVLLLEKMGGSSGALYGLFLTAAAQPLKAKTSLPAWSAAMDAGLEAMQKYGKAAPGDRTMLDSLWAAGQELQAWKSPGADLLQVLTKAVKSAEAAAEATKNMEAGAGRASYISSARLEQPDPGAVAAAAILRAILEVLQS [TKFC]”: the thermal stability score stood at 1.34 in data set [1] (setting [5]) and 0.558 in data set [1] (cell cycle stage: mitosis). In data set [2], the “solubility in G1/S (log2)” value was found to be 0.321. The melting temperature in data set [3] (cell cycle stage: G1/S) was 54.8 °C; in data set [3] (cell cycle stage: mitosis), 55 °C. Besides, in data set [4], the “solubility change mitosis (log2)” value was -0.0666.
Regarding “MTSLMPGAGLLPIPTPNPLTTLGVSLSSLGAIPAAALDPNIATLGEIPQPPLMGNVDPSKIDEIRRTVYVGNLNSQTTTADQLLEFFKQVGEVKFVRMAGDETQPTRFAFVEFADQNSVPRALAFNGVMFGDRPLKINHSNNAIVKPPEMTPQAAAKELEEVMKRVREAQSFISAAIEPESGKSNERKGGRSRSHTRSKSRSSSKSHSRRKRSQSKHRSRSHNRSRSRQKDRRRSKSPHKKRSKSRERRKSRSRSHSRDKRKDTREKIKEKERVKEKDREKEREREKEREKEKERGKNKDRDKEREKDREKDKEKDREREREKEHEKDRDKEKEKEQDKEKEREKDRSKEIDEKRKKDKKSRTPPRSYNASRRSRSSSRERRRRRSRSSSRSPRTSKTIKRKSSRSPSPRSRNKKDKKREKERDHISERRERERSTSMRKSSNDRDGKEKLEKNSTSLKEKEHNKEPDSSVSKEVDDKDAPRTEENKIQHNGNCQLNEENLSTKTEAV [SREK1]”, the results for the thermal stability score in data set [1] (setting [5]) and in data set [1] (cell cycle stage: mitosis) were 1.86 and 4.67, respectively. In addition, the “solubility in G1/S (log2)” value in data set [2] was -0.849. The melting temperature in data set [3] (cell cycle stage: G1/S) turned out to be 48.9 °C; in data set [3] (cell cycle stage: mitosis) it was 50.6 °C. Besides, in data set [4], the “solubility change mitosis (log2)” value amounted to 0.262.
“MTTEKSLVTEAENSQHQQKEEGEEAINSGQQEPQQEESCQTAAEGDNWCEQKLKASNGDTPTHEDLTKNKERTSESRGLSRLFSSFLKRPKSQVSEEEGKEVESDKEKGEGGQKEIEFGTSLDEEIILKAPIAAPEPELKTDPSLDLHSLSSAETQPAQEELREDPDFEIKEGEGLEECSKIEVKEESPQSKAETELKASQKPIRKHRNMHCKVSLLDDTVYECVVEKHAKGQDLLKRVCEHLNLLEEDYFGLAIWDNATSKTWLDSAKEIKKQVRGVPWNFTFNVKFYPPDPAQLTEDITRYYLCLQLRQDIVAGRLPCSFATLALLGSYTIQSELGDYDPELHGVDYVSDFKLAPNQTKELEEKVMELHKSYRSMTPAQADLEFLENAKKLSMYGVDLHKAKDLEGVDIILGVCSSGLLVYKDKLRINRFPWPKVLKISYKRSSFFIKIRPGEQEQYESTIGFKLPSYRAAKKLWKVCVEHHTFFRLTSTDTIPKSKFLALGSKFRYSGRTQAQTRQASALIDRPAPHFERTASKRASRSLDGAAAVDSADRSPRPTSAPAITQGQVAEGGVLDASAKKTVVPKAQKETVKAEVKKEDEPPEQAEPEPTEAWKVEKTHIEVTVPTSNGDQTQKLAEKTEDLIRMRKKKRERLDGENIYIRHSNLMLEDLDKSQEEIKKHHASISELKKNFMESVPEPRPSEWDKRLSTHSPFRTLNINGQIPTGEGPPLVKTQTVTISDNANAVKSEIPTKDVPIVHTETKTITYEAAQTDDNSGDLDPGVLLTAQTITSETPSSTTTTQITKTVKGGISETRIEKRIVITGDADIDHDQVLVQAIKEAKEQHPDMSVTKVVVHQETEIADE [EPB41]”: the thermal stability score is -0.449 in data set [1] (setting [5]) and -0.552 in data set [1] (cell cycle stage: mitosis). The “solubility in G1/S (log2)” value in data set [2] is -0.0892. Besides, the melting temperature in data set [3] (cell cycle stage: G1/S) and in data set [3] (cell cycle stage: mitosis) was 51.6 °C each time. In data set [4], the “solubility change mitosis (log2)” value is -0.0541.
Turning to “MTTSHQPQDRYKAVWLIFFMLGLGTLLPWNFFMTATQYFTNRLDMSQNVSLVTAELSKDAQASAAPAAPLPERNSLSAIFNNVMTLCAMLPLLLFTYLNSFLHQRIPQSVRILGSLVAILLVFLITAILVKVQLDALPFFVITMIKIVLINSFGAILQGSLFGLAGLLPASYTAPIMSGQGLAGFFASVAMICAIASGSELSESAFGYFITACAVIILTIICYLGLPRLEFYRYYQQLKLEGPGEQETKLDLISKGEEPRAGKEESGVSVSNSQPTNESHSIKAILKNISVLAFSVCFIFTITIGMFPAVTVEVKSSIAGSSTWERYFIPVSCFLTFNIFDWLGRSLTAVFMWPGKDSRWLPSLVLARLVFVPLLLLCNIKPRRYLTVVFEHDAWFIFFMAAFAFSNGYLASLCMCFGPKKVKPAEAETAGAIMAFFLCLGLALGAVFSFLFRAIV [SLC29A1]”, the figures for the thermal stability score in data set [1] (setting [5]) and in data set [1] (cell cycle stage: mitosis) were 1.53 and 0.495, respectively. Further, the “solubility in G1/S (log2)” value in data set [2] is -0.149. The melting temperature is 58.4 °C in data set [3] (cell cycle stage: G1/S) and 61.1 °C in data set [3] (cell cycle stage: mitosis). The “solubility change mitosis (log2)” value in data set [4] is -0.151.
“MTTYSDKGAKPERGRFLHFHSVTFWVGNAKQATSFYCSKMGFEPLAYRGLETGSREVVSHVIKQGKIVFVLSSALNPWNKEMGDHLVKHGDGVKDIAFEVEDCDYIVQKARERGAKIMREPWVEQDKFGKVKFAVLQTYGDTTHTLVEKMNYIGQFLPGYEAPAFMDPLLPKLPKCSLEMIDHIVGNQPDQEMVSASEWYLKNLQFHRFWSVDDTQVHTEYSSLRSIVVANYEESIKMPINEPAPGKKKSQIQEYVDYNGGAGVQHIALKTEDIITAIRHLRERGLEFLSVPSTYYKQLREKLKTAKIKVKENIDALEELKILVDYDEKGYLLQIFTKPVQDRPTLFLEVIQRHNHQGFGAGNFNSLFKAFEEEQNLRGNLTNMETNGVVPGM [HPD]”: the thermal stability score in data set [1] (setting [5]) is 1.14; in data set [1] (cell cycle stage: mitosis) it was 1.46. Moreover, the “solubility in G1/S (log2)” value in data set [2] stood at 0.143. The melting temperature in data set [3] (cell cycle stage: G1/S) is 53.6 °C; in data set [3] (cell cycle stage: mitosis), 53.5 °C. Besides, the “solubility change mitosis (log2)” value in data set [4] was -0.0296.

(Values after the supplement of paper PMC5998384.)
